Measured values reported in patent publication US20140242093A1, “METHODS AND COMPOSITIONS FOR MODULATING THE INNATE IMMUNE RESPONSE AND/OR MYOGENESIS IN A MAMMALIAN SUBJECT” (FRED HUTCHINSON CANCER RESEARCH CENTER, priority 2011, published 2014).

Tested on: control human primary myoblasts
Experiment: Expression microarray of primary myoblasts transduced with lentivirus carrying DUX4-fl, DUX4-s or GFP
Method: Primary human myoblasts were collected and cultured as previously described (Snider et al., 2010). Primary myoblasts were maintained at or below 70% confluency for proliferation. For differentiation, cells were allowed to reach 95-100% confluency in growth medium. Once confluency was reached, the cells were changed to differentiation medium (F10 media supplemented with 1% horse serum, 10 μg/mL insulin, and 10 μg/mL transferrin, penicillin/streptomycin) and maintained for 4 days. Human RD cells were grown in DMEM in 10% bovine calf serum (Hyclone) and penicillin/streptomycin. The primary myoblasts were transduced with lentivirus carrying DUX-fl, DUX4- or GFP (MOI=15).
Expression microarrays were performed on the transduced cells at 24 hours after transduction as follows. […] Samples were analyzed by Illumina Human Whole Genome microarrays. Probe intensities were corrected, normalized, and summarized by the Lumi package of Bioconductor (Du et al., 2008). Differentially expressed genes were identified by the LIMMA package of Bioconductor (Wettenhall and Smyth, 2004). Gene set enrichment analysis (GSEA) was performed using the Bioconductor GOstats package (Falcon and Gentleman, 2007).

B1: DUX4-s: short splice form of DUX4 (SEQ ID NO:112), keeps the double-homeobox domains, lacks the C-terminal activation domain (protein, listed as Homo sapiens)
chain: MALPTPSDSTLPAEARGRGRRRRLVWTPSQSEALRACFERNPYPGIATRERLAQAIGIPEPRVQIWFQNERSRQLRQHRRESRPWPGRRGPPEGRRKRTAVTGSQTALLLRAFEKDRFPGIAAREELARETGLPESRIQIWFQNRRARHPGQGGRAPAQV
fc of CCND2 (expression array) (Refseq NM_001759.2): −0.5282
CD9 expression fc (Refseq NM_001769.2): −0.004788
CDH11 fc (Refseq NM_001797.2): 0.2419
HBEGF expression fc (Refseq NM_001945.1): −0.07673
ECGF1 expression fc (Refseq NM_001953.2, cultured human skeletal muscle): 0.6156
EGR1 expression fc (Refseq NM_001964.2): 0.02651
ETV6 fc (Refseq NM_001987.4): −0.05533
EYA3 expression fc (Refseq NM_001990.2): −0.01672
fc of ACSL1 (expression array) (Refseq NM_001995.2): 0.147
FES fc (Refseq NM_002005.2): −0.3314
FTH1 expression fc (Refseq NM_002032.2, cultured human skeletal muscle): −0.4183
GTF2F1 expression fc (Refseq NM_002096.1): 0.29
HLA-A fc (Refseq NM_002116.5): 0.5577
HMOX1 expression fc (Refseq NM_002133.1, cultured human skeletal muscle): 0.9838
HOXB2 expression fc (Refseq NM_002145.3): −0.04069
HSPA6 expression fc (Refseq NM_002155.3): 0.128
ID2 expression fc (Refseq NM_002166.4): 0.2756
fc of IFNB1 (expression array) (Refseq NM_002176.2): 1.044
INSM1 expression fc (Refseq NM_002196.2): 0.2306
IRF1 expression fc (Refseq NM_002198.1, cultured human skeletal muscle): 0.3563
ISG20 expression fc (Refseq NM_002201.4, cultured human skeletal muscle): 2.357
fc of ITGA3 (expression array) (Refseq NM_002204.1): 0.1268
fc of JUNB (expression array) (Refseq NM_002229.2): 0.5152
JUP expression fc (Refseq NM_002230.1): −0.1057
KPNA2 expression fc (Refseq NM_002266.2): −0.5075
fc of LAMC1 (expression array) (Refseq NM_002293.2): −1.061
fc of LSS (expression array) (Refseq NM_002340.3): −0.007301
LTBR fc (Refseq NM_002342.1): 0.4061
LUM fc (Refseq NM_002345.3): 0.3869
LY6E expression fc (Refseq NM_002346.1, cultured human skeletal muscle): 0.2484
fc of MDM2 (expression array) (Refseq NM_002392.2): 1.078
MX1 expression fc (Refseq NM_002462.2, cultured human skeletal muscle): 0.2624
MX2 expression fc (Refseq NM_002463.1, cultured human skeletal muscle): 0.9576
fc of MYF6 (expression array) (Refseq NM_002469.1): −0.0236
MYOD1 fc (Refseq NM_002478.4): −0.462
NFYA expression fc (Refseq NM_002505.3): 0.9153
OAS2 expression fc (Refseq NM_002535.2, cultured human skeletal muscle): 0.4553
ODC1 expression fc (Refseq NM_002539.1): −0.2008
PDE4B fc (Refseq NM_002600.3): 0.6757
PFKP fc (Refseq NM_002627.3): 0.7759
PIM1 expression fc (Refseq NM_002648.2): −0.6756
EXOSC10 expression fc (Refseq NM_002685.2): 0.2771
PNN expression fc (Refseq NM_002687.3): 0.04413
PRKD1 fc (Refseq NM_002742.2): −0.6085
PSMB9 expression fc (Refseq NM_002800.4, cultured human skeletal muscle): 0.9451
PTX3 expression fc (Refseq NM_002852.2, cultured human skeletal muscle): 0.9442
PYGB expression fc (Refseq NM_002862.3, cultured human skeletal muscle): −0.118
fc of RAB13 (expression array) (Refseq NM_002870.2): 0.3496
fc of RBMS1 (expression array) (Refseq NM_002897.3): 1.104
fc of RBMS2 (expression array) (Refseq NM_002898.2): 1.448
RXRA fc (Refseq NM_002957.3): −0.3202
CCL2 expression fc (Refseq NM_002982.3, cultured human skeletal muscle): 0.4355
CCL5 expression fc (Refseq NM_002985.2, cultured human skeletal muscle): 1.889
CXCL6 expression fc (Refseq NM_002993.2, cultured human skeletal muscle): 0.1728
CXCL5 expression fc (Refseq NM_002994.3, cultured human skeletal muscle): 0.824
SLC2A5 expression fc (Refseq NM_003039.1, cultured human skeletal muscle): 0.8141
SLC22A4 fc (Refseq NM_003059.2): 0.3817
SNAI2 expression fc (Refseq NM_003068.3, cultured human skeletal muscle): 0.2027
fc of SMARCD3 (expression array) (Refseq NM_003078.3): −0.3421
SNRNP70 expression fc (Refseq NM_003089.4): 0.01776
SOX4 expression fc (Refseq NM_003107.2): −0.2174
SPG7 fc (Refseq NM_003119.2): −0.2796
SRP19 expression fc (Refseq NM_003135.1): 0.227
fc of STRN (expression array) (Refseq NM_003162.2): 1.092
THBS1 fc (Refseq NM_003246.2): −0.5659
UBA7 expression fc (Refseq NM_003335.2, cultured human skeletal muscle): 0.5729
fc of UGCG (expression array) (Refseq NM_003358.1): 1.447
WEE1 fc (Refseq NM_003390.2): 0.3325
WNT5A fc (Refseq NM_003392.3): −0.3993
